From paper PMC10714827 come the findings set out here.

In assay [1] the target is His6-sP36 purified from homologous expression in M. mazei (Methanosarcina mazei). The assay is described as follows: SEC; analytical gel filtration, ENrich SEC 650; 0.5 mg untagged sP36 or 0.3 mg His6-sP36; eluted with 50 mM phosphate buffer (150 mM NaCl, pH 8.0), 1 mL/min; BioRad size-exclusion standard.
Assay [2] addresses small protein 36 (sP36), untagged, purified from heterologous expression in E. coli (Methanosarcina mazei). Briefly: MST; RED-NHS-labelled untagged sP36 at 100 nM held constant (the methods say 10 nM for the AmtB1 series); AmtB1-His6 (12.5 µM to 0.38 nM) or His6-GlnK1 (7.5 µM to 0.23 nM) in 16 dilutions; concentrations on monomeric mass; standard capillaries, 100% excitation power, medium or high MST power; three biological replicates.

Assay [3] deals with PII-like protein GlnK1 with N-terminal His tag (Methanosarcina mazei) (UniProt Q8PYW7). Briefly: ITC; 20 µM GlnK1 in the cell titrated with 300 µM sP36; 100 mM potassium phosphate, 2 mM EDTA, pH 7.0, 25°C; model for a single ligand binding site.
For assay [4], the target named is small protein 36 (sP36), untagged, purified from heterologous expression in E. coli (Methanosarcina mazei). The assay is described as follows: SEC; analytical gel filtration, ENrich SEC 650; 0.5 mg untagged sP36 or 0.3 mg His6-sP36; eluted with 50 mM phosphate buffer (150 mM NaCl, pH 8.0), 1 mL/min; BioRad size-exclusion standard.
The target is the same in assay [5]. Briefly: MST; RED-NHS-labelled untagged sP36 at 100 nM held constant (the methods say 10 nM for the AmtB1 series); AmtB1-His6 (12.5 µM to 0.38 nM) or His6-GlnK1 (7.5 µM to 0.23 nM) in 16 dilutions; concentrations on monomeric mass; standard capillaries, 100% excitation power, medium or high MST power; three biological replicates. This is another data set of the same source.

Like-named read-outs stand apart in the source and are kept apart here.

Molecule “His6-sP36 purified from homologous expression in M. mazei (natural protein)” registered a stoichiometry N in assay [1] of 6.
In assay [2], “ammonium transporter AmtB1 with C-terminal His6-tag (from UniProt Q8U4U2 1-397) (natural protein)” came in with a Kd of 260 nM.
Consider “small protein 36 (sP36), untagged, purified from heterologous expression in E. coli (natural protein)”, for which, in assay [3], the Kd turned out to be 5400 nM and the stoichiometry N (sP36 monomers per GlnK1 monomer) was found to be 2. Moreover, in assay [4], the stoichiometry N was found to be 6.

B1: PII-like protein GlnK1 with N-terminal His tag (natural protein)
chain: MVAMKYVIAMIRPERLDAVKRELQKIEVSRLTVSSVSGYGAQKGYMEIYRAMEYDANLLEKIKIEIAVNDEFLEPTIEAIKTGAKGSDGYVGSGKIFVLPLENVIRIRTNETGPEAI
Take B1: in assay [5], the Kd is 1800 nM.
